The test concerns the target T1, human fibrinogen (human, UniProt P02671-2 20-644; P02675 31-491; P02679-2 27-437).
T1 construct: fibrinogen A-alpha chain, human; fibrinogen B-beta chain, human; fibrinogen gamma chain, human; Coated on MaxSorb ELISA plates; also called Fbgn; source: bought: Sigma; copies: 2 + 2 + 2
T1 sequence (looked up) 1: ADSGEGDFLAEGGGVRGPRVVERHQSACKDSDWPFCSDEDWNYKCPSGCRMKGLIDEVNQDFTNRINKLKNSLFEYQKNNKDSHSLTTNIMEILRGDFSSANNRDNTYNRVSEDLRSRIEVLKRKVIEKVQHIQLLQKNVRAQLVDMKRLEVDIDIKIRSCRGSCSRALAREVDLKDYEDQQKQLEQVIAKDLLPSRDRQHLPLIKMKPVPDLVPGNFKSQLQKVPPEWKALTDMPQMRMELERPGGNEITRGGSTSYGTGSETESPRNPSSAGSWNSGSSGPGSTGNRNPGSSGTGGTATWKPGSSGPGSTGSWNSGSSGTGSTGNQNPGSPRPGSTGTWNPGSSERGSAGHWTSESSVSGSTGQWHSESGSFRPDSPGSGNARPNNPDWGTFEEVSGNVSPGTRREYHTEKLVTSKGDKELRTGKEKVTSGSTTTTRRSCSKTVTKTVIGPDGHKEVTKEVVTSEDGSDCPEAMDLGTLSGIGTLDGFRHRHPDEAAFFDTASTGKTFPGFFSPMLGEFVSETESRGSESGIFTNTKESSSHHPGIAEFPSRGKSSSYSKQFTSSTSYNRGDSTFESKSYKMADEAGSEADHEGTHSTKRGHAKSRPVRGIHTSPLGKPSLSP
T1 sequence (looked up) 2: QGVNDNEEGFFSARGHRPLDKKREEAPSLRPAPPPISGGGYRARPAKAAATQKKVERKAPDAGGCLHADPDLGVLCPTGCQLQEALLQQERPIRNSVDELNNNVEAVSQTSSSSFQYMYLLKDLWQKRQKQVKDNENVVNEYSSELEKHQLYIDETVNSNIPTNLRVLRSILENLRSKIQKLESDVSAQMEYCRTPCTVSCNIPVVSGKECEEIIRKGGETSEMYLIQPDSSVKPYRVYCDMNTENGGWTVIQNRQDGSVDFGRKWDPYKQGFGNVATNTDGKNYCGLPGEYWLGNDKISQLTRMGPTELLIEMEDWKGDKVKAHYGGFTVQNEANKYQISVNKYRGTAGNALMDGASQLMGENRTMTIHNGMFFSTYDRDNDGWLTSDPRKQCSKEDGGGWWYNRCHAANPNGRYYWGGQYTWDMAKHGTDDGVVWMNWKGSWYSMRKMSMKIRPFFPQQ
T1 sequence (looked up) 3: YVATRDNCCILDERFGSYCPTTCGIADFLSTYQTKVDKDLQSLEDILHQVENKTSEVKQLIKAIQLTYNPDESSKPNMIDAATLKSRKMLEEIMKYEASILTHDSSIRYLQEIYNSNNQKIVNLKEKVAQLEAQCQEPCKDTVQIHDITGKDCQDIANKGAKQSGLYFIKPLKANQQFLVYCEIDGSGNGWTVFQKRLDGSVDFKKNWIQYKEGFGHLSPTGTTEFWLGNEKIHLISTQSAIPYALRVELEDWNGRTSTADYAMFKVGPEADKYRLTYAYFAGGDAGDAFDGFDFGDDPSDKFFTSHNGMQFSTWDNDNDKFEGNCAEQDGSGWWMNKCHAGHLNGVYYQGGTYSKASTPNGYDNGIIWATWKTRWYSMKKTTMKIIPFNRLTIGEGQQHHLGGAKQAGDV
As to the kind of experiment: ELISA; human fibrinogen coated overnight on MaxSorb 96-well plates, wells treated with PBS (fibrinogen) or 100 nM alpha-thrombin in 1% sodium-citrate/PBS for one hour at room temperature (fibrin); ClfA in 1% sodium-citrate added at increasing concentrations for one hour; bound ClfA detected with polyclonal anti-ClfA and anti-rabbit-HRP; non-linear regression, one-site saturation. The note with it: both partners purified. For orientation: ELISA stands for enzyme-linked immunosorbent assay.

B1: clumping factor A (ClfA), purified recombinant (natural protein)
chain: not shown
notes: clumping factor A (ClfA) of Staphylococcus aureus; strain Newman is the strain worked with; it would add an N-terminal His tag (surmised); also called His6-ClfA; source: E. coli BL21(DE3), purified (Ni-NTA)
Molecule B1 gave a Kd of 395 ± 51.8 nM.

Usually Kd stands for the concentration at which binding is half-saturated.

(Values after article PMC3197598, “Preventing Staphylococcus aureus Sepsis through the Inhibition of Its Agglutination in Blood” (PLoS Pathogens, 2011).)
